Measurements published in publication PMC3040440 (Journal of immunology (Baltimore, Md. : 1950), 2010).

B1: TNF receptor associated factor 3 (TRAF3) (natural protein, mouse (endogenous in CH12.LX), UniProt Q60803 1-567, looked up)
chain: MESSKKMDAAGTLQPNPPLKLQPDRGAGSVLVPEQGGYKEKFVKTVEDKYKCEKCRLVLCNPKQTECGHRFCESCMAALLSSSSPKCTACQESIIKDKVFKDNCCKREILALQVYCRNEGRGCAEQLTLGHLLVHLKNECQFEELPCLRADCKEKVLRKDLRDHVEKACKYREATCSHCKSQVPMIKLQKHEDTDCPCVVVSCPHKCSVQTLLRSELSAHLSECVNAPSTCSFKRYGCVFQGTNQQIKAHEASSAVQHVNLLKEWSNSLEKKVSLLQNESVEKNKSIQSLHNQICSFEIEIERQKEMLRNNESKILHLQRVIDSQAEKLKELDKEIRPFRQNWEEADSMKSSVESLQNRVTELESVDKSAGQAARNTGLLESQLSRHDQMLSVHDIRLADMDLRFQVLETASYNGVLIWKIRDYKRRKQEAVMGKTLSLYSQPFYTGYFGYKMCARVYLNGDGMGKGTHLSLFFVIMRGEYDALLPWPFKQKVTLMLMDQGSSRRHLGDAFKPDPNSSSFKKPTGEMNIASGCPVFVAQTVLENGTYIKDDTIFIKVIVDTSDLPDP
B2: TNF receptor associated factor 5 (TRAF5) (natural protein, mouse (endogenous in CH12.LX), UniProt P70191 1-558, looked up)
chain: MAHSEEQAAVPCAFIRQNSGNSISLDFEPDTEYQFVEQLEERYKCAFCHSVLHNPHQTGCGHRFCQQCIRSLRELNSVPICPVDKEVIKPQEVFKDNCCKREVLNLHVYCKNAPGCNARIILGRFQDHLQHCSFQAVPCPNESCREAMLRKDVKEHLSAYCRFREEKCLYCKRDIVVTNLQDHEENSCPAYPVSCPNRCVQTIPRARVNEHLTVCPEAEQDCPFKHYGCTVKGKRGNLLEHERAALQDHMLLVLEKNYQLEQRISDLYQSLEQKESKIQQLAETVKKFEKELKQFTQMFGRNGTFLSNVQALTSHTDKSAWLEAQVRQLLQIVNQQPSRLDLRSLVDAVDSVKQRITQLEASDQRLVLLEGETSKHDAHINIHKAQLNKNEERFKQLEGACYSGKLIWKVTDYRVKKREAVEGHTVSVFSQPFYTSRCGYRLCARAYLNGDGSGKGTHLSLYFVVMRGEFDSLLQWPFRQRVTLMLLDQSGKKNHIVETFKADPNSSSFKRPDGEMNIASGCPRFVSHSTLENSKNTYIKDDTLFLKVAVDLTDLEDL

Biological target: hCD40-P227A, gain-of-function polymorphism of the human CD40 receptor (human, UniProt P25942 21-277, P227A)
Sequence (P25942 21-277 P227A): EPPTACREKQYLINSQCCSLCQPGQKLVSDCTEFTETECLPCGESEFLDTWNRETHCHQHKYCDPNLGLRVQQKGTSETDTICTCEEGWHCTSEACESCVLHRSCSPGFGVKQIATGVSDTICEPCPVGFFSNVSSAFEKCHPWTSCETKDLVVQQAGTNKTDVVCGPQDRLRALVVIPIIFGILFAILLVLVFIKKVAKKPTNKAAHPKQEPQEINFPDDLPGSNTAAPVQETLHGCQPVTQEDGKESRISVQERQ
Test: co-IP

Binder | fold bound relative to Wt-hCD40 [fold]
B1 | 2
B2 | 2
